Assay results: patent publication US20090130192A1 (UNIVERSITY OF MANCHESTER, published 2009)

B1: VEGF-R1, soluble extracellular domain (receptor)
chain: SKLKDPELSLKGTQHIMQAGQTLHLQCRGEAAHKWSLPEMVSKESERLSITKSACGRNGKQFCSTLTLNTAQANHTGFYSCKYLAVPTSKKKETESAIYIFISDTGRPFVEMYSEIPEIIHMTEGRELVIPCRVTSPNITVTLKKFPLDTLIPDGKRIIWDSRKGFIISNATYKEIGLLTCEATVNGHLYKTNYLTHRQTNTIIDVQISTPRPVKLLRGHTLVLNCTATTPLNTRVQMTWSYPDEKNKRASVRRRIDQSNSHANIFYSVLTIDKMQNKDKGLYTCRVRSGPSFKSVNTSVHIYDKAFITVKHRKQQVLETVAGKRSYRLSMKVKAFPSPEVVWLKDGLPATEKSARYLTRGYSLIIKDVTEEDAGNYTILLSIKQSNVFKNLTATLIVNVKPQIYEKAVSSFPDPALYPLGSRQILTCTAYGIPQPTIKWFWHPCNHNHSEARCDFCSNNEESFILDADSNMGNRIESITQRMAIIEGKNKMASTLVVADSRISGIYICIASNKVGTVGRNISFYITDVPNGFHVNLEKMPTEGEDLKLSCTVNKFLYRDVTWILLRTVNNRTMHYSISKQKMAITKEHSITLNLTIMNVSLQDSGTYACRARNVYTGEEILQKKEITIRDQEAPYLLRNLSDHTVAISSSTTLDCHANGVPEPQITWFKNNHKIQQEPGIILGPGSSTLFIERVTEEDEGVYHCKATNQKGSVESSAYLTVQGTSDKSNLE
B2: full-length recombinant opticin (protein, UniProt P58874 20-321, looked up)
chain: ASLSEEREGDPYAILHLGDYVLSLDNYDEVIDPSNYDELIDYGDQLPQVKGTSLASLTRTRFTQSTEAARTLPSNPTTARPPTLGLLAAPANHGLPTCLICVCLGSSVYCDDADLENIPPLPQTTAYLYARFNRISHIRAGDFKGLTKLKRIDLSGNSISSIDDKALRLLPALRDLILPENKLVALPTLPTSIEVLDVRMNRLQSSGIQPEAFRALEKLQFLYLADNLLDAIPPSLPLSLRSLHLQNNMIETMQRDAFCDAEEHRHTRRPLEDIRLDGNPINLSLFPSAYFCLPRLPTGRFV

How the values were obtained:
[1] = target: T1, full-length recombinant opticin (bovine (stated in Example 6 only; not …, UniProt P58874 20-321); test: solid-phase binding assay, receptor coated at 2 µg/ml, opticin titrated, detected with opticin-specific antibody; apparent Kd
T1 construct: mature; also called recombinant bovine opticin; class III SLRP opticin
T1 sequence (looked up): B2 chain

VEGF164 = test: solid-phase binding assay, growth factor coated at 2 µg/ml, opticin titrated, detected with opticin-specific antibody; apparent Kd
[2] = target: basic fibroblast growth factor (FGF-2); test: as above
Chain of basic fibroblast growth factor (FGF-2) (P09038 143-288): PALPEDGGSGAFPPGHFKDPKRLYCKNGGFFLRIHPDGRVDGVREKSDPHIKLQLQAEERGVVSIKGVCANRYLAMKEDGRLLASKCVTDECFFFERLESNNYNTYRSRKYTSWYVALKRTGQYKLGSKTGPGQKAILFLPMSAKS

[3] = target: basic fibroblast growth factor (FGF-2); test: cell-based or functional assay
[4] = target: vascular endothelial growth factor (VEGF), isoform not stated; test: cell-based or functional assay

Binder	Kd [1]	Kd (VEGF164)	Kd [2]	inhibition of FGF-2 induced BAEC proliferation [3]	reduction of FGF-2-induced BAEC migration, 10 µg/ml opticin [3]	reduction of FGF-2-induced BAEC sprouting [3]	inhibition of VEGF induced BAEC proliferation [4]	reduction of VEGF-induced BAEC migration, 10 µg/ml opticin [4]	reduction of VEGF-induced BAEC sprouting [4]
B1	21 nM	–	–	–	–	–	–	–	–
B2	–	42 nM	34 nM	> 95%	86%	73%	> 90%	53%	70%
